This note sets out measurements from article PMC6486591, “Cryo-EM structures of the pore-forming A subunit from the Yersinia entomophaga ABC toxin” (Nature Communications, 2019).

The target of one experiment is T1, YenA2 (Yersinia entomophaga, UniProt B6A878 1-1364).
T1 construct: YenA2, TcA-like protein of Yersinia entomophaga (156 kDa), subunit of YenTcA; UniProt entry name B6A878_9GAMM is printed; holds the shell domain (1-165; 559-812), neuraminidase-like domain (166-332; Natively expressed, no fusion tags; Five copies stand in the YenTcA complex and form the pentameric pore; also called TcA-like protein YenA2
The experiment can be described thus: cryo-EM structure; YenTcA soluble pre-pore form, single-particle cryo-EM, 4.4 Å average resolution, C5 symmetry; 0.1 mg/mL in 25 mM Tris, 150 mM NaCl, pH 7.5, with 10 mM NDSB-195. The note with it: both partners purified.

Another experiment addresses T2, YenA1 (Yersinia entomophaga, UniProt B6A877 1-1164).
T2 construct: YenA1, TcA-like protein of Yersinia entomophaga (130 kDa), subunit of YenTcA; residues 45-304 and 584-1164 are resolved in the alpha-helical shell, residues 305-583 are an unmodelled domain insertion; Natively expressed, no fusion tags; Five copies stand in the YenTcA complex; also called TcA-like protein YenA1
The description is as above. As to conditions: both partners purified.

T1 sequence (B6A878 whole entry, the tested form may be a part): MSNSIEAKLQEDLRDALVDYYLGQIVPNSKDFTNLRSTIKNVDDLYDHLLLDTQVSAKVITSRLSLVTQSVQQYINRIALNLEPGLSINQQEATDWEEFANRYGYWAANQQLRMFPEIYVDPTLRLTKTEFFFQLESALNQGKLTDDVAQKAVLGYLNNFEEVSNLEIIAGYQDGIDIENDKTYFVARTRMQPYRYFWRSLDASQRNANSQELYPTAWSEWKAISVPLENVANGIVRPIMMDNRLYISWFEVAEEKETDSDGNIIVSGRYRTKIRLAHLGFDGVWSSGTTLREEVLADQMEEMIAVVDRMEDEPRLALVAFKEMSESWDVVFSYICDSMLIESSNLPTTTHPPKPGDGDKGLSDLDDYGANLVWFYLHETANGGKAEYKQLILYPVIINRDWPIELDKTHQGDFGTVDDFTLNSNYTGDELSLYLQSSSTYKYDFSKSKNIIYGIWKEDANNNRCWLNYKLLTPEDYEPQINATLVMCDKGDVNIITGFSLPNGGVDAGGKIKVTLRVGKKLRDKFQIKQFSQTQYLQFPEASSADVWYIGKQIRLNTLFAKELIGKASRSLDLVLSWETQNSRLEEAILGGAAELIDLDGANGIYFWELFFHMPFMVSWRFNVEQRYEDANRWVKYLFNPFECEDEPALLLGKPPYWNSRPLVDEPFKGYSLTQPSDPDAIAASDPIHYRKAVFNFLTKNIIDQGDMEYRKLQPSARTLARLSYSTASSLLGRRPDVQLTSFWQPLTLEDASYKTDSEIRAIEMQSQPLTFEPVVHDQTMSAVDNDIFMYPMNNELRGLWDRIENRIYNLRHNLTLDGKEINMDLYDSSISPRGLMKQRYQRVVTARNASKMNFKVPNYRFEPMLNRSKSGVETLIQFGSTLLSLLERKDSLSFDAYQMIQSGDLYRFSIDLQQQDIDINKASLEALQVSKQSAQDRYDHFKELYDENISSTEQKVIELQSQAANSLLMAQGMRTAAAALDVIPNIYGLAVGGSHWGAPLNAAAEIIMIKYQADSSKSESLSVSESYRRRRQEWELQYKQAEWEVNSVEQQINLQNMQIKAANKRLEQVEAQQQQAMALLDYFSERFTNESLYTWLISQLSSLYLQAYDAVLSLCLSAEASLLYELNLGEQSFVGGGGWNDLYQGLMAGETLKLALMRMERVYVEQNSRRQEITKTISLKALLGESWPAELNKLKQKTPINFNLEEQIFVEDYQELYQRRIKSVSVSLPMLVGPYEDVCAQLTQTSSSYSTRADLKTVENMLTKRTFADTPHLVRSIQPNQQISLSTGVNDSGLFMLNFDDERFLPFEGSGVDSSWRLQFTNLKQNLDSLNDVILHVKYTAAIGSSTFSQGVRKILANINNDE
T2 sequence (B6A877 whole entry, the tested form may be a part): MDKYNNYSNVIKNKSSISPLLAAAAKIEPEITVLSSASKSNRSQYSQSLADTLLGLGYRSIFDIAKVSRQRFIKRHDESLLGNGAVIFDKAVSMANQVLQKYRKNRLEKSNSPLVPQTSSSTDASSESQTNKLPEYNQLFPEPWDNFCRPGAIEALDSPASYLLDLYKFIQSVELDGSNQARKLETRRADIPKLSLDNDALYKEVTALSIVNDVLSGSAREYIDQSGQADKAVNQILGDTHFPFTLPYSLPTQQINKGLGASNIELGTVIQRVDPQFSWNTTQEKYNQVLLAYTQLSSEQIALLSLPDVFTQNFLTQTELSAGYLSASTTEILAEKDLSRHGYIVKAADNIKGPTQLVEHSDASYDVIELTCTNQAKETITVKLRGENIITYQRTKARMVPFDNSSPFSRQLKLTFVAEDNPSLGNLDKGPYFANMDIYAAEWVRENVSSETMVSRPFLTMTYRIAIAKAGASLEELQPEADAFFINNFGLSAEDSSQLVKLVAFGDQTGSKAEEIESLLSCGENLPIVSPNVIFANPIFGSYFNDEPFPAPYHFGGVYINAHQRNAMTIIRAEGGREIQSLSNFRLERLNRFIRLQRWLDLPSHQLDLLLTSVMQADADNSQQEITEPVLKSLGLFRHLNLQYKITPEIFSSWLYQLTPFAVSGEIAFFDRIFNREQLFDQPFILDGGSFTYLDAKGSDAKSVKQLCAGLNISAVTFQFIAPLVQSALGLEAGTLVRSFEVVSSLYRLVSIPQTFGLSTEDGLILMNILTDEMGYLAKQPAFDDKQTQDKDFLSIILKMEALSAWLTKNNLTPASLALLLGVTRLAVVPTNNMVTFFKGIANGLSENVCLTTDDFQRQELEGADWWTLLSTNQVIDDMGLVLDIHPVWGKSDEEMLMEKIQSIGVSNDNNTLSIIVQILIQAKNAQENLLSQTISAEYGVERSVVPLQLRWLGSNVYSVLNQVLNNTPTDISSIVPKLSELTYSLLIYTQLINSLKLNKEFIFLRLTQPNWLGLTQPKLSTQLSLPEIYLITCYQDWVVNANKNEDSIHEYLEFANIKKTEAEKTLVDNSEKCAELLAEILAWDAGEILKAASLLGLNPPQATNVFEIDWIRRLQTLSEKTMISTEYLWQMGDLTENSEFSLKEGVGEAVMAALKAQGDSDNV

B1: Chi1 (enzyme)
chain: MEKEEKSNLIYDKDPGYVWDNKNECEGAAEETYQELNYEPSISADKLTWTPTRLAKTVFNTYEDDDDFNVLCYFTDWSQYDPRIINKEIRDTGGRSADILRLNTPDGRPFKRLIYSFGGLIGDKKYSADGNASIAVRLGVATDPDDAIANHKGKTIPVDPDGAVLASINCGFTKWEAGDANERYNQEKAKGLLGGFRLLHEADKELEFSLSIGGWSMSGLFSEIAKDEILRTNFVEGIKDFFQRFPMFSHLDIDWEYPGSIGAGNPNSPDDGANFAILIQQITDAKISNLKGISIASSADPAKIDAANIPALMDAGVTGINLMTYDFFTLGDGKLSHHTNIYRDPSDVYSKYSIDDAVTHLIDEKKVDPKAIFIGYAGYTRNAKNATITTSIPSEEALKGTYTDANQTLGSFEYSVLEWTDIICHYMDFEKGEGRNGYKLVHDKVAKADYLYSEATKVFISLDTPRSVRDKGRYVKDKGLGGLFIWSGDQDNGILTNAAHEGLKRRIKNKVIDMTPFYLDSDEELPTYTEPAEPQCEACNIK
notes: Chi1, endochitinase of Yersinia entomophaga, subunit of YenTcA; earlier crystal structure PDB 3oa5 was fitted as a rigid body; Natively expressed, no fusion tags; Five copies stand in YenTcA; Chi1 is not in the deposited atomic model 6ogd; also called endochitinase Chi1; Chi1 subunit
Regarding B1, the binding result with YenA2 was “binds”.

B2: Chi2 (enzyme)
chain: MVNKYTYTSSKAMSDISDVIGEPLAAWDSQVGGRVFNVIFDGKVYTNTYWVERWQVPGIGSSDGNPHNAWKFVRAATADEINKIGNPTTADVKPTENIPSPILVEDKYTEETYSRPDVNFKEDGSQGNLSYTATRVCAPMYNHYVGDKTKPKLSAYITDWCQYDARLDGGGSKEEERGRGFDLATLMQNPATYDRLIFSFLGICGDIGNKSKKVQEVWDGWNAQAPSLGLPQIGKGHIVPLDPYGDLGTARNVGLPPESADTSIESGTFLPYYQQNRAAGLLGGLRELQKKAHAMGHKLDLAFSIGGWSLSSYFSALAENPDERRVFVASVVDFFVRFPMFSCVDIDWEYPGGGGDEGNISSDKDGENYVLLIKELRSALDSRFGYSNRKEISIACSGVKAKLKKSNIDQLVANGLDNIYLMSYDFFGTIWADYIGHHTNLYSPKDPGEQELFDLSAEAAIDYLHNELGIPMEKIHLGYANYGRSAVGGDLTTRQYTKNGPALGTMENGAPEFFDIVKNYMDAEHSLSMGKNGFVLMTDTNADADFLFSEAKGHFISLDTPRTVKQKGEYAAKNKLGGVFSWSGDQDCGLLANAAREGLGYVADSNQETIDMGPLYNPGKEIYLKSISEIKSK
notes: Chi2, endochitinase of Yersinia entomophaga, subunit of YenTcA; N-terminal domain residues 1-91 (unmodelled), chitinase domain residues 92-632 (earlier crystal structure PDB 4dws); Natively expressed, no fusion tags; Five copies stand in the YenTcA complex; also called endochitinase Chi2; Chi2 subunit
Take B2: in the experiment with YenA1, the binding result is “binds”.
